Data: patent US7083786

Target: T1, human complement factor C4, P0C0L4
T1 chain: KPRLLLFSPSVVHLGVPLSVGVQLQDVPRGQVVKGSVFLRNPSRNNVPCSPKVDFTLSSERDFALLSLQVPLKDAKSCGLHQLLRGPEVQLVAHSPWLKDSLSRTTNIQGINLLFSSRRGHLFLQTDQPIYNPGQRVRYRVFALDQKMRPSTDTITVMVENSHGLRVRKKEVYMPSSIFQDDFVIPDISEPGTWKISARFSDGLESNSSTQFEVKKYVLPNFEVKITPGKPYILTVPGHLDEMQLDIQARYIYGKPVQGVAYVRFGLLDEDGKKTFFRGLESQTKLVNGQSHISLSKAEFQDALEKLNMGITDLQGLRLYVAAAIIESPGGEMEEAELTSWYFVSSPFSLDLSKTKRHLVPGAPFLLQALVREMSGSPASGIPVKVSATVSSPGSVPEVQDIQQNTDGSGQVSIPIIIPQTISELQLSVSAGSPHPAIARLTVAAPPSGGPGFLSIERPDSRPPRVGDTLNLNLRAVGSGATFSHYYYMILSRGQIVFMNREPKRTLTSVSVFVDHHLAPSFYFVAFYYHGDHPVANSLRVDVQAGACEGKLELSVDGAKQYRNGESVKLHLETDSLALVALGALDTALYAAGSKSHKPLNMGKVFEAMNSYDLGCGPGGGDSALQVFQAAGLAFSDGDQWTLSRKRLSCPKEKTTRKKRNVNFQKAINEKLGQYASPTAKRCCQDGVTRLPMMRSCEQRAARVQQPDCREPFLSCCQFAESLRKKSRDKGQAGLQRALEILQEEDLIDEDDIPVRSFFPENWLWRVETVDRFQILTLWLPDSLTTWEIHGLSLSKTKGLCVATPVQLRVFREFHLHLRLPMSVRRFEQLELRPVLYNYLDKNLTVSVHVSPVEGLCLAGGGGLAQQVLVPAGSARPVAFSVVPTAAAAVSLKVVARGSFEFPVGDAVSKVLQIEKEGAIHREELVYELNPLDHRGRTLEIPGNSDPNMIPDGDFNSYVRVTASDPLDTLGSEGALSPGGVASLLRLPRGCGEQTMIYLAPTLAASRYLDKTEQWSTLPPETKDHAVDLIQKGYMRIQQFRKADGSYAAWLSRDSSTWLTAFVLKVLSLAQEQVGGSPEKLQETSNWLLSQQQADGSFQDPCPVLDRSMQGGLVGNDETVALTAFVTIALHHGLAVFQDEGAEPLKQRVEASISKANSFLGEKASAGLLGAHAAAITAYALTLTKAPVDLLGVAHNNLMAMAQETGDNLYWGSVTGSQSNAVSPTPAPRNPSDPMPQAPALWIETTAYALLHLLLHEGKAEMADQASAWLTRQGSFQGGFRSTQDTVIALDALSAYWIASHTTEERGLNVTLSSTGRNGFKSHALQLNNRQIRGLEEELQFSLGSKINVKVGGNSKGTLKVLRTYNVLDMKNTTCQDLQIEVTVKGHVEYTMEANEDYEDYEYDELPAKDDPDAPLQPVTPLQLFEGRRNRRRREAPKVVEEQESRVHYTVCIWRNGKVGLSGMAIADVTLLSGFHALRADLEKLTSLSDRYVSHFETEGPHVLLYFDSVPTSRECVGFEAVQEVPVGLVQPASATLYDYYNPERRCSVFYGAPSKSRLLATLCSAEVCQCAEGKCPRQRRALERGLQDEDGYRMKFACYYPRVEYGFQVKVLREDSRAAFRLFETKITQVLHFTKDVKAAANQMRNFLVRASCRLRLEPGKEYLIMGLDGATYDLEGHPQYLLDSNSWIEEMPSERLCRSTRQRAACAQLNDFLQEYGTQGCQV

Protein	C4 deposition on a Western blot incubated with human serum (C4 activation)
mannan-binding lectin associated serine protease-2 (MASP-2), 76 kDa protein from human plasma (protein) TPLGPKWPEPVFGRLASPGFPGEYANDQERRWTLTAPPGYRLRLYFTHFDLELSHLCEYDFVKLSSGAKVLATLCGQESTDTERAPGKDTFYSLGSSLDITFRSDYSNEKPFTGFEAFYAAEDIDECQVAPGEAPTCDHHCHNHLGGFYCSCRAGYVLHRNKRTCSALCSGQVFTQRSGELSSPEYPRPYPKLSSCTYSISLEEGFSVILDFVESFDVETHPETLCPYDFLKIQTDREEHGPFCGKTLPHRIETKSNTVTITFVTDESGDHTGWKIHYTSTAQPCPYPMAPPNGHVSPVQAKYILKDSFSIFCETGYELLQGHLPLKSFTAVCQKDGSWDRPMPACSIVDCGPPDDLPSGRVEYITGPGVTTYKAVIQYSCEETFYTMKVNDGKYVCEADGFWTSSKGEKSLPVCEPVCGLSARTTGGRIYGGQKAKPGDFPWQVLILGGTTAAGALLYDNWVLTAAHAVYEQKHDASALDIRMGTLKRLSPHYTQAWSEAVFIHEGYTHDAGFDNDIALIKLNNKVVINSNITPICLPRKEAESFMRTDDIGTASGWGLTQRGFLARNLMYVDIPIVDHQKCTAAYEKPPYPRGSVTANMLCAGLESGGKDSCRGDSGGALVFLDSETERWFVGGIVSWGSMNCGEAGQYGVYTKVINYIPWIENIISDF	C4 was deposited at a position corresponding to the MASP-2 band
MASP-1 (MBP-associated serine protease) from human plasma (protein) HTVELNNMFGQIQSPGYPDSYPSDSEVTWNITVPDGFRIKLYFMHFNLESSYLCEYDYVKVETEDQVLATFCGRETTDTEQTPGQEVVLSPGSFMSITFRSDFSNEERFTGFDAHYMAVDVDECKEREDEELSCDHYCHNYIGGYYCSCRFGYILHTDNRTCRVECSDNLFTQRTGVITSPDFPNPYPKSSECLYTIELEEGFMVNLQFEDIFDIEDHPEVPCPYDYIKIKVGPKVLGPFCGEKAPEPISTQSHSVLILFHSDNSGENRGWRLSYRAAGNEPELQPPVHGKIEPSQAKYFFKDQVLVSCDTGYKVLKDNVEMDTFQIECLKDGTWSNKIPTCKIVDCRAPGELEHGLITFSTRNNLTTYKSEIKYSCQEPYYKMLNNNTGIYTCSAQGVWMNKVLGRSLPTCLPVCGLPKFSRKLMARIFNGRPAQKGTTPWIAMLSHLNGQPFCGGSLLGSSWIVTAAHCLHQSLDPKDPTLRDSDLLSPSDFKIILGKHWRLRSDENEQHLGVKHTTLHPKYDPNTFENDVALVELLESPVLNAFVMPICLPEGPQQEGAMVIVSGWGKQFLQRFPETLMEIEIPIVDHSTCQKAYAPLKKKVTRDMICAGEKEGGKDACSGDSGGPMVTLNRERGQWYLVGTVSWGDDCGKKDRYGVYSYIHHNKDWIQRVTGVRN	no C4 deposition was observed at positions corresponding to MASP-1
C1s from human serum C1 (protein) EPTMYGEILSPNYPQAYPSEVEKSWDIEVPEGYGIHLYFTHLDIELSENCAYDSVQIISGDTEEGRLCGQRSSNNPHSPIVEEFQVPYNKLQVIFKSDFSNEERFTGFAAYYVATDINECTDFVDVPCSHFCNNFIGGYFCSCPPEYFLHDDMKNCGVNCSGDVFTALIGEIASPNYPKPYPENSRCEYQIRLEKGFQVVVTLRREDFDVEAADSAGNCLDSLVFVAGDRQFGPYCGHGFPGPLNIETKSNALDIIFQTDLTGQKKGWKLRYHGDPMPCPKEDTPNSVWEPAKAKYVFRDVVQITCLDGFEVVEGRVGATSFYSTCQSNGKWSNSKLKCQPVDCGIPESIENGKVEDPESTLFGSVIRYTCEEPYYYMENGGGGEYHCAGNGSWVNEVLGPELPKCVPVCGVPREPFEEKQRIIGGSDADIKNFPWQVFFDNPWAGGALINEYWVLTAAHVVEGNREPTMYVGSTSVQTSRLAKSKMLTPEHVFIHPGWKLLEVPEGRTNFDNDIALVRLKDPVKMGPTVSPICLPGTSSDYNLMDGDLGLISGWGRTEKRDRAVRLKAARLPVAPLRKCKEVKVEKPTADAEAYVFTPNMICAGGEKGMDSCKGDSGGAFAVQDPNDKTKFYAAGLVSWGPQCGTYGLYTRVKNYVDWIMKTMQENSTPRED	C4 deposition, which could be inhibited by enzyme inhibitors, was observed at a position corresponding to C1r and C1s, which are not separated by the technique employed
C1r from human serum C1 (protein) SIPIPQKLFGEVTSPLFPKPYPNNFETTTVITVPTGYRVKLVFQQFDLEPSEGCFYDYVKISADKKSLGRFCGQLGSPLGNPPGKKEFMSQGNKMLLTFHTDFSNEENGTIMFYKGFLAYYQAVDLDECASRSKSGEEDPQPQCQHLCHNYVGGYFCSCRPGYELQEDRHSCQAECSSELYTEASGYISSLEYPRSYPPDLRCNYSIRVERGLTLHLKFLEPFDIDDHQQVHCPYDQLQIYANGKNIGEFCGKQRPPDLDTSSNAVDLLFFTDESGDSRGWKLRYTTEIIKCPQPKTLDEFTIIQNLQPQYQFRDYFIATCKQGYQLIEGNQVLHSFTAVCQDDGTWHRAMPRCKIKDCGQPRNLPNGDFRYTTTMGVNTYKARIQYYCHEPYYKMQTRAGSRESEQGVYTCTAQGIWKNEQKGEKIPRCLPVCGKPVNPVEQRQRIIGGQKAKMGNFPWQVFTNIHGRGGGALLGDRWILTAAHTLYPKEHEAQSNASLDVFLGHTNVEELMKLGNHPIRRVSVHPDYRQDESYNFEGDIALLELENSVTLGPNLLPICLPDNDTFYDLGLMGYVSGFGVMEEKIAHDLRFVRLPVANPQACENWLRGKNRMDVFSQNMFCAGHPSLKQDACQGDSGGVFAVRDPNTDRWVATGIVSWGIGCSRGYGFYTKVLNYVDWIKKEMEEED	C4 deposition, which could be inhibited by enzyme inhibitors, was observed at a position corresponding to C1r and C1s, which are not separated by the technique employed
